# Experimental data reported in paper PMC1277818, “Substrate specificity analysis of protein kinase complex Dbf2-Mob1 by peptide library and proteome array screening” (BMC Biochemistry, 2005).
# T1: FHHDbf2-H6Mob1TM9 (Saccharomyces cerevisiae, UniProt P22204+P40484)
# T1 construct: made in house; host or cells: Hi5 insect cells (baculovirus)
# T1 sequence (P22204 1-572): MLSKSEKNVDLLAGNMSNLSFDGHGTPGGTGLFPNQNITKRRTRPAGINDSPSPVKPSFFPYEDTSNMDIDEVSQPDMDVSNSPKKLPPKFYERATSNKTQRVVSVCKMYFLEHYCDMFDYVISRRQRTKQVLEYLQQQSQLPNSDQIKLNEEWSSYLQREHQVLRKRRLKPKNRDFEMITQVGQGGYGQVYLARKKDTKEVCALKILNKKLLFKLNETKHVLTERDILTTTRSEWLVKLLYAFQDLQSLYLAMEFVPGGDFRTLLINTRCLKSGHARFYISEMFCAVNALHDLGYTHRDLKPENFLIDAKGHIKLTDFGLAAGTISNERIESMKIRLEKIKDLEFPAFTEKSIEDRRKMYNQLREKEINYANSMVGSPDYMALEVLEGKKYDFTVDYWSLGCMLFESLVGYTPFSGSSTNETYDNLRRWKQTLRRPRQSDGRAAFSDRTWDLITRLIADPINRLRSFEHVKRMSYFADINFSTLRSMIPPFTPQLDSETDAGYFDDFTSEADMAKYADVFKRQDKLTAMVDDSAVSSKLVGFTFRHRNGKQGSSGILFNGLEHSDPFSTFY
# T1 sequence (P40484 1-314 partner): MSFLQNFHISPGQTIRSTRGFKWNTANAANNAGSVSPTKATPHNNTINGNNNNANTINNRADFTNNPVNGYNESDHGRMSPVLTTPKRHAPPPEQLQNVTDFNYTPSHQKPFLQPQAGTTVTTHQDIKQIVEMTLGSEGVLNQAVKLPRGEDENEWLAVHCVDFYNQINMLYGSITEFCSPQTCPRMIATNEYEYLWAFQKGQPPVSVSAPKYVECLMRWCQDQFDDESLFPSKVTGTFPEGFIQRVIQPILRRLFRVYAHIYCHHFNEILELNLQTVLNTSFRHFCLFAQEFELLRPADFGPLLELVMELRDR
# Target: T1, FHHDbf2-H6Mob1TM9
# Test: Yeast proteome chip assay
# Type: biochemical
# Conditions: Table 3; GST fusion proteins on proteome chip, [γ-33P]ATP, chips in duplicate, computer analysis
# How it was run: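 GST-tagged yeast proteins (~4,400 strains) spotted on proteome microarrays, probed in duplicate with FHHDbf2-H6Mob1TM9 in DKB plus [γ-33P]ATP; kinase-dead Dbf2(N305A) and kinase-free buffer served as controls. Positives: 3 of 4 spots ≥2 SD above background, fourth ≥1.5 SD.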
row,Molecule,Slide Signal (after normalization)
1,"YLR303W: GST fusion yeast protein on proteome chip (protein, UniProt P06106 2-444, looked up, GST tag, GST fusion yeast protein on proteome chip) Homocysteine/cysteine synthase: PSHFDTVQLHAGQENPGDNAHRSRAVPIYATTSYVFENSKHGSQLFGLEVPGYVYSRFQNPTSNVLEERIAALEGGAAALAVSSGQAAQTLAIQGLAHTGDNIVSTSYLYGGTYNQFKISFKRFGIEARFVEGDNPEEFEKVFDERTKAVYLETIGNPKYNVPDFEKIVAIAHKHGIPVVVDNTFGAGGYFCQPIKYGADIVTHSATKWIGGHGTTIGGIIVDSGKFPWKDYPEKFPQFSQPAEGYHGTIYNEAYGNLAYIVHVRTELLRDLGPLMNPFASFLLLQGVETLSLRAERHGENALKLAKWLEQSPYVSWVSYPGLASHSHHENAKKYLSNGFGGVLSFGVKDLPNADKETDPFKLSGAQVVDNLKLASNLANVGDAKTLVIAPYFTTHKQLNDKEKLASGVTKDLIRVSVGIEFIDDIIADFQQSFETVFAGQKP",0.0985
2,"YFR033C: GST fusion yeast protein on proteome chip (protein, UniProt P00127 1-147, looked up, GST fusion, GST fusion yeast protein on proteome chip) Cytochrome b-c1 complex …: MGMLELVGEYWEQLKITVVPVVAAAEDDDNEQHEEKAAEGEEKEEENGDEDEDEDEDEDDDDDDDEDEEEEEEVTDQLEDLREHFKNTEEGKALVHHYEECAERVKIQQQQPGYADLEHKEDCVEEFFHLQHYLDTATAPRLFDKLK",0.042
3,"YGR264C: GST fusion yeast protein on proteome chip (protein, UniProt P00958 2-751, looked up, GST tag, GST fusion yeast protein on proteome chip) Methionine--tRNA ligase, …: SFLISFDKSKKHPAHLQLANNLKIALALEYASKNLKPEVDNDNAAMELRNTKEPFLLFDANAILRYVMDDFEGQTSDKYQFALASLQNLLYHKELPQQHVEVLTNKAIENYLVELKEPLTTTDLILFANVYALNSSLVHSKFPELPSKVHNAVALAKKHVPRDSSSFKNIGAVKIQADLTVKPKDSEILPKPNERNILITSALPYVNNVPHLGNIIGSVLSADIFARYCKGRNYNALFICGTDEYGTATETKALEEGVTPRQLCDKYHKIHSDVYKWFQIGFDYFGRTTTDKQTEIAQHIFTKLNSNGYLEEQSMKQLYCPVHNSYLADRYVEGECPKCHYDDARGDQCDKCGALLDPFELINPRCKLDDASPEPKYSDHIFLSLDKLESQISEWVEKASEEGNWSKNSKTITQSWLKDGLKPRCITRDLVWGTPVPLEKYKDKVLYVWFDATIGYVSITSNYTKEWKQWWNNPEHVSLYQFMGKDNVPFHTVVFPGSQLGTEENWTMLHHLNTTEYLQYENGKFSKSRGVGVFGNNAQDSGISPSVWRYYLASVRPESSDSHFSWDDFVARNNSELLANLGNFVNRLIKFVNAKYNGVVPKFDPKKVSNYDGLVKDINEILSNYVKEMELGHERRGLEIAMSLSARGNQFLQENKLDNTLFSQSPEKSDAVVAVGLNIIYAVSSIITPYMPEIGEKINKMLNAPALKIDDRFHLAILEGHNINKAEYLFQRIDEKKIDEWRAKYGGQQV",0.1328
4,"YLR007W: GST fusion yeast protein on proteome chip (protein, UniProt Q07913 1-336, looked up, GST tag, GST fusion yeast protein on proteome chip) Non-structural maintenance of …: MEVHEEQVSAPVTGDATAKYLLQYILSARGICHENALILALMRLETDASTLNTEWSIQQWVDKLNDYINAINVKLNLLGYKIIRINHGIGRNAVTLKAKQNFESFEDNTAIRAHNNDYAVLQSIVLPESNRFFVYVNLASTEETKLATRFNQNEIEFMKWAIEQFMISGETIVEGPALETSIIVKEVNRILVAATGDSNLAKWRKFSTFTVGSTNLFQFQELTATDIEDLLLRLCELKWFYRTQEGKFGIDLRCIAELEEYLTSMYNLNTCQNCHKLAIQGVRCGNESCREENEETGENSLSQIWHVDCFKHYITHVSKNCDRCGSSLITEGVYVI",0.0988
5,"YML035C: GST fusion yeast protein on proteome chip (protein, UniProt P15274 1-810, looked up, GST tag, GST fusion yeast protein on proteome chip) AMP deaminase: MDNQATQRLNDLSLEPAPSHDEQDGSGLVIDIDQRKIGDEQAGVVVDDETPPLEQQDSHESLAADSRNANFSYHENQQLLENGTKQLALDEHDSHSAILEQPSHSTNCSSSNIAAMNKGHDSADHASQNSGGKPRTLSASAQHILPETLKSFAGAPVVNKQVRTSASYKMGMLADDASQQFLDDPSSELIDLYSKVAECRNLRAKYQTISVQNDDQNPKNKPGWVVYPPPPKPSYNSDTKTVVPVTNKPDAEVFDFTKCEIPGEDPDWEFTLNDDDSYVVHRSGKTDELIAQIPTLRDYYLDLEKMISISSDGPAKSFAYRRLQYLEARWNLYYLLNEYQETSVSKRNPHRDFYNVRKVDTHVHHSACMNQKHLLRFIKHKLRHSKDEKVIFRDGKLLTLDEVFRSLHLTGYDLSIDTLDMHAHKDTFHRFDKFNLKYNPIGESRLREIFLKTNNYIKGTYLADITKQVIFDLENSKYQNCEYRISVYGRSLDEWDKLASWVIDNKVISHNVRWLVQIPRLYDIYKKTGIVQSFQDICKNLFQPLFEVTKNPQSHPKLHVFLQRVIGFDSVDDESKVDRRFHRKYPKPSLWEAPQNPPYSYYLYYLYSNVASLNQWRAKRGFNTLVLRPHCGEAGDPEHLVSAYLLAHGISHGILLRKVPFVQYLYYLDQVGIAMSPLSNNALFLTYDKNPFPRYFKRGLNVSLSTDDPLQFSYTREPLIEEYSVAAQIYKLSNVDMCELARNSVLQSGWEAQIKKHWIGKDFDKSGVEGNDVVRTNVPDIRINYRYDTLSTELELVNHFANFKRTIEEK",0.1384
6,"YBL024W: GST fusion yeast protein on proteome chip (protein, UniProt P38205 1-684, looked up, GST tag, GST fusion yeast protein on proteome chip) Multisite-specific …: MARRKNFKKGNKKTFGARDDSRAQKNWSELVKENEKWEKYYKTLALFPEDQWEEFKKTCQAPLPLTFRITGSRKHAGEVLNLFKERHLPNLTNVEFEGEKIKAPVELPWYPDHLAWQLDVPKTVIRKNEQFAKTQRFLVVENAVGNISRQEAVSMIPPIVLEVKPHHTVLDMCAAPGSKTAQLIEALHKDTDEPSGFVVANDADARRSHMLVHQLKRLNSANLMVVNHDAQFFPRIRLHGNSNNKNDVLKFDRILCDVPCSGDGTMRKNVNVWKDWNTQAGLGLHAVQLNILNRGLHLLKNNGRLVYSTCSLNPIENEAVVAEALRKWGDKIRLVNCDDKLPGLIRSKGVSKWPVYDRNLTEKTKGDEGTLDSFFSPSEEEASKFNLQNCMRVYPHQQNTGGFFITVFEKVEDSTEAATEKLSSETPALESEGPQTKKIKVEEVQKKERLPRDANEEPFVFVDPQHEALKVCWDFYGIDNIFDRNTCLVRNATGEPTRVVYTVCPALKDVIQANDDRLKIIYSGVKLFVSQRSDIECSWRIQSESLPIMKHHMKSNRIVEANLEMLKHLLIESFPNFDDIRSKNIDNDFVEKMTKLSSGCAFIDVSRNDPAKENLFLPVWKGNKCINLMVCKEDTHELLYRIFGIDANAKATPSAEEKEKEKETTESPAETTTGTSTEAPSAAN",0.1294
7,"YGL105W: GST fusion yeast protein on proteome chip (protein, UniProt P46672 1-376, looked up, GST fusion, GST fusion yeast protein on proteome chip) tRNA-aminoacylation cofactor …: MSDLVTKFESLIISKYPVSFTKEQSAQAAQWESVLKSGQIQPHLDQLNLVLRDNTFIVSTLYPTSTDVHVFEVALPLIKDLVASSKDVKSTYTTYRHILRWIDYMQNLLEVSSTDKLEINHDLDLPHEVIEKKKKAPAGGAADAAAKADEDVSKKAKKQDHPRGKPDEETLKKLREEAKAKKAAKKAANAKQQQEQQNKAPEKPKPSAIDFRVGFIQKAIKHPDADSLYVSTIDVGDEEGPRTVCSGLVKHFPLDAMQERYVVVVCNLKPVNMRGIKSTAMVLCGSNDDKVEFVEPPKDSKAGDKVFFEGFGDEAPMKQLNPKKKIWEHLQPHFTTNDGLEVIFKDEEEKDHPVRKLTNAKGESFKVASIANAQVR",0.1332
8,"YLL008W: GST fusion yeast protein on proteome chip (protein, UniProt P32892 1-752, looked up, GST tag, GST fusion yeast protein on proteome chip) ATP-dependent RNA helicase …: MVVGTKKYSNLDFVPTISDSEDDVPILDSSDDEKVEAKKTTKKRKGKNNKKKVSEGDNLDEDVHEDLDAGFKFDLDADDTTSNFQGWNFLAEGESNKDDAEAFVKKDVDLDKIIRRKGGLVKMAHIDSKQEEETEKEKVEKENDSDDEELAMDGFGMGAPMNNGDENQSEEEEEEEEKEEEEEEEEEQEEMTLEKGGKDDEIDEEDDSEEAKADFYAPETEGDEAKKQMYENFNSLSLSRPVLKGLASLGYVKPSPIQSATIPIALLGKDIIAGAVTGSGKTAAFMIPIIERLLYKPAKIASTRVIVLLPTRELAIQVADVGKQIARFVSGITFGLAVGGLNLRQQEQMLKSRPDIVIATPGRFIDHIRNSASFNVDSVEILVMDEADRMLEEGFQDELNEIMGLLPSNRQNLLFSATMNSKIKSLVSLSLKKPVRIMIDPPKKAATKLTQEFVRIRKRDHLKPALLFNLIRKLDPTGQKRIVVFVARKETAHRLRIIMGLLGMSVGELHGSLTQEQRLDSVNKFKNLEVPVLICTDLASRGLDIPKIEVVINYDMPKSYEIYLHRVGRTARAGREGRSVTFVGESSQDRSIVRAAIKSVEENKSLTQGKALGRNVDWVQIEETNKLVESMNDTIEDILVEEKEEKEILRAEMQLRKGENMLKHKKEIQARPRRTWFQSESDKKNSKVLGALSRNKKVTNSKKRKREEAKADGNGARSYRKTKTDRIADQERTFKKQKSTNSNKKKGFKSRR",0.0702
